120 sequences from the supplement of paper PMC10126150 can be followed below.

± gives the standard deviation of the averaged measurements.

The series has as its system ATP. Kind of series: switch fluorescence ratio, 500 uM ATP over buffer (Cy3 cluster intensity, sum of 5 cycles each) (fold (ratio)); higher = stronger signal-on switching upon ATP binding; sequences stand for … in TCGTCGGCAGCGTCAGATGTGTATAAGAGACAGTTTTTTTTTTTTTTTTTTTTTTTTT…TC. The note with it: aptamer strand: ATP DNA aptamer (quencher-CACCTGGGGGAGTATTGCGGAGGAAGG + anchor), 100 nM annealed; ATP concentration: 500 uM. In outline: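 Per cluster, summed Cy3 intensity from the target cycles was divided by that from the buffer cycles to give the fluorescence ratio, then averaged per switch-domain sequence. Clusters outside 100-1000 RFU were excluded. The Cy3-labelled switching-strand clusters, on a modified Illumina MiSeq flow-cell, were annealed to 100 nM quencher-labelled ATP aptamer and imaged in selection buffer, then after 15 min with 500 uM ATP at 22 °C, for five cycles with NaOH stripping and re-annealing between them.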
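Note: ATP exposure 15 min at 22 °C before imaging.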

Consider GGGGAGGCAT, for which the switch fluorescence ratio worked out at 0.954 ± 0.027. Then GGGGAGGGAG, with 1.0077 ± 0.00081; and GGGGAGGGCA, with 1.02 ± 0.035; and GGGGAGGGTC, with 1.016 ± 0.0055. The same measure for GGGGAGGTCG: 1.03 ± 0.02; for GGGGAGTCTT: 0.972 ± 0.057; for GGGGAGTGAC: 1.025 ± 0.0086.

GGGGAGTGCA: the switch fluorescence ratio came out at 1 ± 0.035.

In the case of GGGGAGTTGG, the switch fluorescence ratio came out at 0.969 ± 0.025. Consider GGGGATACCT, for which the switch fluorescence ratio turned out to be 1.04 ± 0.023.

In the case of GGGGATAGGC, the switch fluorescence ratio stood at 1.01 ± 0.023. Then GGGGATATTC, with 1 ± 0.023. Then GGGGATCAGC, with 0.9912 ± 0.0036; and GGGGATCCAT, with 1.02 ± 0.026; and GGGGATCGCC, with 1.01 ± 0.03. The same measure for GGGGATCGGG: 0.965 ± 0.022. As to GGGGATCTTA, the switch fluorescence ratio worked out at 1 ± 0.031. The same measure for GGGGATGATG: 0.9683 ± 0.0046; for GGGGATGCGA: 1.09 ± 0.1; for GGGGATGCGC: 1.02 ± 0.011.

For the sequence GGGGATGCTG, the switch fluorescence ratio is 0.902 ± 0.21. The same measure for GGGGATGGAA: 1.02 ± 0.013; for GGGGATGGCA: 1.02 ± 0.012; for GGGGATGGTC: 0.962 ± 0.0016.

As for GGGGATGTAA, the switch fluorescence ratio was determined as 1.01 ± 0.013. Then GGGGATGTGG, with 0.99 ± 0.037. The same measure for GGGGATGTGT: 1 ± 0.035; for GGGGATTAGA: 0.9846 ± 0.0072; for GGGGATTGTG: 0.991 ± 0.029. As for GGGGCAAAGC, the switch fluorescence ratio turned out to be 0.96 ± 0.085. Then GGGGCAAGGA, with 0.987 ± 0.023; and GGGGCAAGGG, with 1.28 ± 0.28; and GGGGCACGCT, with 0.999 ± 0.03.

Turning to GGGGCAGCCG, the switch fluorescence ratio stood at 1.01 ± 0.059.

On to GGGGCAGGGG, for which the switch fluorescence ratio was determined as 1.05 ± 0.062. As for GGGGCAGTGT, the switch fluorescence ratio stood at 0.991 ± 0.042.

On to GGGGCCAAGT, for which the switch fluorescence ratio was found to be 0.981 ± 0.037. For GGGGCCGGGT, the switch fluorescence ratio was 0.998 ± 0.02.

On to GGGGCCGTGC, for which the switch fluorescence ratio was 1.01 ± 0.038. Then GGGGCCTTGG, with 1.01 ± 0.022. The same measure for GGGGCGCGGG: 1.03 ± 0.033; for GGGGCGCGGT: 1.025 ± 0.0058; for GGGGCGGCGA: 1.02 ± 0.047. The same measure for GGGGCGGGGA: 0.996 ± 0.045; for GGGGCGTCAG: 0.97 ± 0.013.

Take GGGGCGTTCG: the switch fluorescence ratio was determined as 1 ± 0.071.

With GGGGCTAACG, the switch fluorescence ratio amounted to 1.02 ± 0.03. GGGGCTAAGC: the switch fluorescence ratio was determined as 1 ± 0.026.

For the sequence GGGGCTACTA, the switch fluorescence ratio was 1.01 ± 0.014. GGGGCTATCG: the switch fluorescence ratio is 1.16 ± 0.24. Then GGGGCTGAGG, with 0.93589 ± 0.00088. The same measure for GGGGCTGCTT: 0.9718 ± 0.0035; for GGGGCTGGCG: 1.03 ± 0.11; for GGGGCTTATG: 0.968 ± 0.0079. The same measure for GGGGCTTCTA: 0.957 ± 0.018; for GGGGCTTTCC: 1.09 ± 0.052. For GGGGGAAACT, the switch fluorescence ratio was 1.013 ± 0.0073. The same measure for GGGGGAAAGT: 0.992 ± 0.026; for GGGGGAACCT: 1.0549 ± 0.00095. The same measure for GGGGGAAGGG: 0.984 ± 0.027; for GGGGGAAGTG: 0.976 ± 0.026. For GGGGGAATAT, the switch fluorescence ratio was found to be 1.13 ± 0.39. The same measure for GGGGGACACT: 1.01 ± 0.022. On to GGGGGACAGA, for which the switch fluorescence ratio is 0.969 ± 0.013.

With GGGGGACCGG, the switch fluorescence ratio is 1.01 ± 0.072. Then GGGGGACCTA, with 0.946 ± 0.026. The same measure for GGGGGACCTT: 1.04 ± 0.061; for GGGGGACGTT: 0.981 ± 0.031. The same measure for GGGGGACTGT: 0.938 ± 0.057; for GGGGGAGCAC: 0.997 ± 0.017; for GGGGGAGCTA: 1 ± 0.032.

With GGGGGAGCTT, the switch fluorescence ratio amounted to 0.9828 ± 0.0078. Consider GGGGGAGGAT, for which the switch fluorescence ratio was found to be 1.03 ± 0.057. Then GGGGGAGGCT, with 0.987 ± 0.034.

Consider GGGGGAGGGC, for which the switch fluorescence ratio is 1.01 ± 0.031. The same measure for GGGGGAGTCC: 0.985 ± 0.014; for GGGGGAGTGT: 0.985 ± 0.026; for GGGGGATCAT: 0.9921 ± 0.0016. Then GGGGGATGCT, with 0.975 ± 0.039. For GGGGGATGTT, the switch fluorescence ratio turned out to be 0.997 ± 0.026. The same measure for GGGGGATTTT: 0.999 ± 0.027; for GGGGGCAACA: 0.973 ± 0.03. For GGGGGCAATT, the switch fluorescence ratio stood at 0.987 ± 0.021. Then GGGGGCAGAG, with 0.991 ± 0.035; and GGGGGCAGCT, with 1 ± 0.027. Turning to GGGGGCAGGC, the switch fluorescence ratio stood at 0.964 ± 0.053. The same measure for GGGGGCAGTT: 1 ± 0.013; for GGGGGCATCG: 1.01 ± 0.018.

Regarding GGGGGCCATC, the switch fluorescence ratio is 1.003 ± 0.0017.

For GGGGGCCCTT, the switch fluorescence ratio stood at 1.02 ± 0.043. Take GGGGGCCGCC: the switch fluorescence ratio was 0.988 ± 0.01.

On to GGGGGCCTAG, for which the switch fluorescence ratio stood at 0.981 ± 0.035. The same measure for GGGGGCGACT: 0.978 ± 0.021.

With GGGGGCGCTG, the switch fluorescence ratio is 1.02 ± 0.028. Then GGGGGCGTTC, with 1.015 ± 0.005. With GGGGGCTAGG, the switch fluorescence ratio is 1.02 ± 0.02. Then GGGGGCTGCC, with 0.986 ± 0.011; and GGGGGCTGCT, with 0.962 ± 0.029. The same measure for GGGGGCTGGT: 1 ± 0.0022. Then GGGGGCTTGT, with 1 ± 0.019; and GGGGGGAATA, with 1 ± 0.047; and GGGGGGAGAC, with 1.07 ± 0.19. On to GGGGGGATCA, for which the switch fluorescence ratio was determined as 0.985 ± 0.026. The same measure for GGGGGGCCTC: 0.981 ± 0.015; for GGGGGGCGTT: 0.998 ± 0.017; for GGGGGGCTAA: 0.984 ± 0.021.

Turning to GGGGGGCTAT, the switch fluorescence ratio was 0.976 ± 0.02.

For the sequence GGGGGGGAG, the switch fluorescence ratio came to 1.02 ± 0.021. Then GGGGGGGCAT, with 1.02 ± 0.031; and GGGGGGGCCC, with 1.01 ± 0.026. The same measure for GGGGGGGCCT: 0.999 ± 0.036.

Take GGGGGGGCTC: the switch fluorescence ratio worked out at 0.965 ± 0.035. The same measure for GGGGGGGGCG: 1.01 ± 0.052. The same measure for GGGGGGGGGA: 1.01 ± 0.039.

Regarding GGGGGGGTCA, the switch fluorescence ratio is 0.994 ± 0.027. For the sequence GGGGGGGTTG, the switch fluorescence ratio came out at 1.01 ± 0.083. The same measure for GGGGGGTAGA: 1.02 ± 0.043; for GGGGGGTCCC: 0.9957 ± 0.0037. Then GGGGGGTCT, with 1.09 ± 0.051. Then GGGGGGTGAG, with 0.974 ± 0.037.
